From US10941182 (Amgen, dated 2021)
Non-standard residues stand in square brackets, D forms with d. Primed or numbered codes have the meaning given here. No end group written: not given here. Oic = O=C(O)[C@@H]1C[C@@H]2CCCC[C@@H]2N1; Phe(4-Cl) = N[C@@H](Cc1ccc(Cl)cc1)C(=O)O; d1Nal = N[C@H](Cc1cccc2ccccc12)C(=O)O; d2Nal = N[C@H](Cc1ccc2ccccc2c1)C(=O)O; NMeR = CN[C@@H](CCCNC(=N)N)C(=O)O; hArg = N=C(N)NCCCC[C@H](N)C(=O)O; β3hR = N=C(N)NCCC[C@H](N)CC(=O)O; Cha = N[C@@H](CC1CCCCC1)C(=O)O; Gly(N-CH2CH2OH) = O=C(O)CNCCO; αMeL = CC(C)C[C@](C)(N)C(=O)O; αMeOrn = C[C@](N)(CCCN)C(=O)O; β3hL = CC(C)C[C@H](N)CC(=O)O; αMeP = C[C@@]1(C(=O)O)CCCN1; β3hK = NCCCC[C@H](N)CC(=O)O; β3hP = O=C(O)C[C@@H]1CCCN1; αMeS = C[C@](N)(CO)C(=O)O; β3hS = N[C@@H](CO)CC(=O)O; Nle = CCCC[C@H](N)C(=O)O; Orn = NCCC[C@H](N)C(=O)O; Pip′ = not defined here; Nlys = NCCCCNCC(=O)O; BLeu = β-leucine; βAla = NCCC(=O)O; BLys = β-lysine

T1: human APJ receptor (human, UniProt P35414 1-380)
T1 sequence (looked up): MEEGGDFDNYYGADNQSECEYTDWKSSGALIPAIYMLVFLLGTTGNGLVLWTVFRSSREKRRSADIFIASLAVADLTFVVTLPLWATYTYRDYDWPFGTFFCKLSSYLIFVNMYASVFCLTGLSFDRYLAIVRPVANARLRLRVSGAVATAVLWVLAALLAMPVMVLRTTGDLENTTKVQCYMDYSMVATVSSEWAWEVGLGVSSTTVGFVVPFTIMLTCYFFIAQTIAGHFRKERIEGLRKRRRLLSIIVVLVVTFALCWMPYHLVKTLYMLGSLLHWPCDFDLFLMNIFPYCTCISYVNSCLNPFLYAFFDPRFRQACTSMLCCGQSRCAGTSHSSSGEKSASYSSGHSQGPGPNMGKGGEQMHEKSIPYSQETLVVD

T2: rat APJ receptor (rat, UniProt Q9JHG3 1-377)
T2 sequence (looked up): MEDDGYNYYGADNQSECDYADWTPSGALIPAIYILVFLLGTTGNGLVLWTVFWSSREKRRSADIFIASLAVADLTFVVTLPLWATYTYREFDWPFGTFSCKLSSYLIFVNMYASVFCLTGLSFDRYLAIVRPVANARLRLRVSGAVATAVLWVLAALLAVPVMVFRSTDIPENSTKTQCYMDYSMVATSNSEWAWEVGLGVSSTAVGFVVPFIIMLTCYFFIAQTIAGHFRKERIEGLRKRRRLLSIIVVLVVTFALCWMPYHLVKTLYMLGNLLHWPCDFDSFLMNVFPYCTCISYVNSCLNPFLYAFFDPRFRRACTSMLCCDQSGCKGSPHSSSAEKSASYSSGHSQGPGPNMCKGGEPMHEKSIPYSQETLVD

B1: apelin polypeptide SEQ ID NO: 31 (peptide)
peptide: Ac-[Orn]F[hArg][hArg]Q[hArg]P[hArg][Cha][Gly(N-CH2CH2OH)]HKG[Oic][Nle]P[Phe(4-Cl)]-OH
SMILES: CCCC[C@H](NC(=O)[C@@H]1C[C@@H]2CCCC[C@@H]2N1C(=O)CNC(=O)[C@H](CCCCN)NC(=O)[C@H](Cc1c[nH]cn1)NC(=O)CN(CCO)C(=O)[C@H](CC1CCCCC1)NC(=O)[C@H](CCCCNC(=N)N)NC(=O)[C@@H]1CCCN1C(=O)[C@H](CCCCNC(=N)N)NC(=O)[C@H](CCC(N)=O)NC(=O)[C@H](CCCCNC(=N)N)NC(=O)[C@H](CCCCNC(=N)N)NC(=O)[C@H](Cc1ccccc1)NC(=O)[C@H](CCCN)NC(C)=O)C(=O)N1CCC[C@H]1C(=O)N[C@@H](Cc1ccc(Cl)cc1)C(=O)O
B2: apelin polypeptide SEQ ID NO: 34 (peptide)
peptide: Ac-[Orn]F[hArg][hArg]Q[hArg]P[hArg][αMeL]SHKG[Oic][Nle]P[Phe(4-Cl)]-OH
SMILES: CCCC[C@H](NC(=O)[C@@H]1C[C@@H]2CCCC[C@@H]2N1C(=O)CNC(=O)[C@H](CCCCN)NC(=O)[C@H](Cc1c[nH]cn1)NC(=O)[C@H](CO)NC(=O)[C@](C)(CC(C)C)NC(=O)[C@H](CCCCNC(=N)N)NC(=O)[C@@H]1CCCN1C(=O)[C@H](CCCCNC(=N)N)NC(=O)[C@H](CCC(N)=O)NC(=O)[C@H](CCCCNC(=N)N)NC(=O)[C@H](CCCCNC(=N)N)NC(=O)[C@H](Cc1ccccc1)NC(=O)[C@H](CCCN)NC(C)=O)C(=O)N1CCC[C@H]1C(=O)N[C@@H](Cc1ccc(Cl)cc1)C(=O)O
B3: apelin polypeptide SEQ ID NO: 25 (peptide)
peptide: Ac-[hArg]Q[dR]P[NMeR][Cha]SHKG[Oic][Nle][d1Nal]-OH
SMILES: CCCC[C@H](NC(=O)[C@@H]1C[C@@H]2CCCC[C@@H]2N1C(=O)CNC(=O)[C@H](CCCCN)NC(=O)[C@H](Cc1c[nH]cn1)NC(=O)[C@H](CO)NC(=O)[C@H](CC1CCCCC1)NC(=O)[C@H](CCCNC(=N)N)N(C)C(=O)[C@@H]1CCCN1C(=O)[C@@H](CCCNC(=N)N)NC(=O)[C@H](CCC(N)=O)NC(=O)[C@H](CCCCNC(=N)N)NC(C)=O)C(=O)N[C@H](Cc1cccc2ccccc12)C(=O)O

Legend:
[1] = molecular target: T1, human APJ receptor; assay: cell-based or functional assay
[2] = molecular target: T2, rat APJ receptor; assay: cell-based or functional assay

Binder | EC50 Human APJ Receptor [1] [nM] | EC50 Rat APJ Receptor [2] [nM]
[Orn]F[hArg][hArg]Q[hArg]P[hArg][Cha]SHKG[β3hP][Nle]P[Phe(4-Cl)] [apelin polypeptide SEQ ID NO: 706] | 1.99 | 4.39
Ac-[Orn]F[hArg][hArg]Q[hArg]P[hArg][Cha]SHKG[Oic][Nle][αMeP][Phe(4-Cl)]-OH [apelin polypeptide SEQ ID NO: 37] | 0.0672 | 0.136
B1 | 0.116 | 0.703
[Orn]F[hArg][hArg]Q[hArg]P[hArg][Cha]SHKG[Oic][Nle][β3hP][Phe(4-Cl)] [apelin polypeptide SEQ ID NO: 709] | 0.555 | 0.862
Ac-[Orn]F[hArg][hArg][BLeu][hArg]P[hArg][Cha]SHKG[Oic][Nle]P[Phe(4-Cl)]-OH [apelin polypeptide SEQ ID NO: 29] | 0.116 | 0.301
[Orn]F[hArg][hArg]Q[hArg]P[hArg][Cha]SHKG[Oic][Nle][d1Nal] [apelin polypeptide SEQ ID NO: 712] | 0.654 | 0.821
Ac-[Orn]F[hArg][hArg]Q[hArg][αMeP][hArg][Cha]SHKG[Oic][Nle]P[Phe(4-Cl)]-OH [apelin polypeptide SEQ ID NO: 33] | 0.0985 | 0.318
Ac-[Orn]F[hArg][hArg]Q[hArg]P[hArg][BLeu]SHKG[Oic][Nle]P[Phe(4-Cl)]-OH [apelin polypeptide SEQ ID NO: 30] | 0.166 | 0.456
B2 | 0.0519 | 0.193
[Orn]F[hArg][hArg]Q[hArg]P[hArg][Cha]SHK[βAla][Oic][Nle]P[Phe(4-Cl)] [apelin polypeptide SEQ ID NO: 704] | 0.963 | 2.86
[Orn]F[hArg][hArg]Q[hArg]P[hArg][β3hL]SHKG[Oic][Nle]P[Phe(4-Cl)] [apelin polypeptide SEQ ID NO: 697] | 0.225 | 0.495
Ac-[Orn]F[hArg][hArg]Q[hArg]P[hArg][Cha][αMeS]HKG[Oic][Nle]P[Phe(4-Cl)]-OH [apelin polypeptide SEQ ID NO: 35] | 0.0861 | 0.185
[Orn]F[hArg][hArg]Q[hArg]P[hArg][Cha]SHKG[Oic][Nle]P[Phe(4-Cl)] [apelin polypeptide SEQ ID NO: 714] | 0.168 | 0.271
[Orn]F[hArg][hArg]Q[hArg]P[hArg][Cha]SHKG[Oic][Nle][βAla][Phe(4-Cl)] [apelin polypeptide SEQ ID NO: 710] | 0.785 | 1.79
[Orn]F[hArg][hArg]Q[hArg]P[hArg][Cha][β3hS]HKG[Oic][Nle]P[Phe(4-Cl)] [apelin polypeptide SEQ ID NO: 698] | 0.539 | 0.734
[Orn]F[hArg][hArg]Q[hArg]P[hArg][Cha]SHKG[βAla][Nle]P[Phe(4-Cl)] [apelin polypeptide SEQ ID NO: 705] | 3.48 | 11.1
[Orn]F[hArg][hArg]Q[hArg]P[hArg][Cha]SH[BLys]G[Oic][Nle]P[Phe(4-Cl)] [apelin polypeptide SEQ ID NO: 702] | 0.33 | 1.49
B3 | 1.74 | 53.7
[Orn]F[hArg][hArg]Q[hArg]P[hArg][Cha][βAla]HKG[Oic][Nle]P[Phe(4-Cl)] [apelin polypeptide SEQ ID NO: 699] | 0.44 | 0.603
[Orn]F[hArg][hArg]Q[hArg]P[hArg][Cha]SH[β3hK]G[Oic][Nle]P[Phe(4-Cl)] [apelin polypeptide SEQ ID NO: 701] | 0.316 | 0.879
[Orn]F[hArg][hArg]Q[hArg]P[hArg][Cha]S[βAla]KG[Oic][Nle]P[Phe(4-Cl)] [apelin polypeptide SEQ ID NO: 700] | 0.949 | 3.11
[Orn]F[hArg][hArg]Q[hArg]P[hArg][Cha]SHKG[Oic][Nle][d2Nal] [apelin polypeptide SEQ ID NO: 713] | 1.54 | 1.14
[Orn]F[hArg][hArg]Q[hArg]P[hArg][Cha]SH[βAla]G[Oic][Nle]P[Phe(4-Cl)] [apelin polypeptide SEQ ID NO: 703] | 1.26 | 2.67
[Orn]F[hArg][hArg]Q[hArg]P[hArg][Cha]SHKG[Pip′][Nle]P[Phe(4-Cl)] [apelin polypeptide SEQ ID NO: 707] | 0.294 | 0.471
Ac-[Orn]F[hArg][hArg]Q[hArg]P[hArg][Cha]SH[Nlys]G[Oic][Nle]P[Phe(4-Cl)]-OH [apelin polypeptide SEQ ID NO: 32] | 0.25 | 1.51
[Orn]F[hArg][hArg]Q[hArg][Pip′][hArg][Cha]SHKG[Oic][Nle]P[Phe(4-Cl)] [apelin polypeptide SEQ ID NO: 695] | 0.313 | 0.384
Ac-[Orn]F[hArg][hArg]Q[hArg]P[hArg][Cha]SH[αMeOrn]G[Oic][Nle]P[Phe(4-Cl)]-OH [apelin polypeptide SEQ ID NO: 36] | 0.355 | 1.94
[Orn]F[hArg][hArg]Q[hArg]P[β3hR][Cha]SHKG[Oic][Nle]P[Phe(4-Cl)] [apelin polypeptide SEQ ID NO: 696] | 0.261 | 0.3
[Orn]F[hArg][hArg]Q[hArg]P[hArg][Cha]SHKG[Oic][Nle][Pip′][Phe(4-Cl)] [apelin polypeptide SEQ ID NO: 711] | 0.229 | 0.351
